Test results: paper PMC6590835, “A unified mechanism for LLPS of ALS/FTLD-causing FUS as well as its modulation by ATP and oligonucleic acids”

How the values were obtained:
[1] = molecular target: FUS U-CTD (RGG2-ZnF-RGG3, ZnF unfolded) (UniProt P35637 371-526); experiment: NMR HSQC titration (CSD); no Zn; 1:10; Arg/Lys residues; 20 uM protein, 5 mM sodium phosphate pH 6.0, 1 mM MgCl2 (ZnCl2 added for full-length FUS and F-CTD), 25 C; conditions: protein: recombinant, tags: none
FUS NTD (PLD+RGG1) [2] = molecular target: T1, FUS NTD (PLD+RGG1) (UniProt P35637 1-267); experiment: NMR HSQC titration; 1 mM MgCl2; same residues as TssDNA; 20 uM protein, 5 mM sodium phosphate pH 6.0, 1 mM MgCl2 (ZnCl2 added for full-length FUS and F-CTD), 25 C; conditions: protein: recombinant; tags: none; unstructured (CD)
[3] = molecular target: T2, FUS F-CTD (RGG2-ZnF-RGG3, ZnF folded) (UniProt P35637 371-526); experiment: NMR HSQC titration (line broadening); Zn2+; same pattern as TssDNA; 20 uM protein, 5 mM sodium phosphate pH 6.0, 1 mM MgCl2 (ZnCl2 added for full-length FUS and F-CTD), 25 C; conditions: protein: recombinant; tags: none; unstructured (CD)
FUS full-length [4] = molecular target: T3, FUS full-length (UniProt P35637 1-526); experiment: NMR HSQC titration (line broadening); Zn2+; highly similar to TssDNA; 20 uM protein, 5 mM sodium phosphate pH 6.0, 1 mM MgCl2 (ZnCl2 added for full-length FUS and F-CTD), 25 C; conditions: protein: recombinant; tags: none (His-tag removed by stop codon); unstructured (CD)
FUS full-length [5] = molecular target: T3, FUS full-length; experiment: NMR HSQC competition (displaces ATP); 3 mM ATP; 0.3 mM TssDNA; 20 uM protein, 5 mM sodium phosphate pH 6.0, 1 mM MgCl2 (ZnCl2 added for full-length FUS and F-CTD), 25 C; conditions: protein: recombinant; tags: none (His-tag removed by stop codon); G4 (by CD in the phosphate buffer)
FUS NTD (PLD+RGG1) [6] = molecular target: T1, FUS NTD (PLD+RGG1); experiment: NMR HSQC titration; 1 mM MgCl2; saturated at 1:2; RGG1 residues; 20 uM protein, 5 mM sodium phosphate pH 6.0, 1 mM MgCl2 (ZnCl2 added for full-length FUS and F-CTD), 25 C; conditions: protein: recombinant; tags: none; G4 (by CD in the phosphate buffer)
[7] = molecular target: T2, FUS F-CTD (RGG2-ZnF-RGG3, ZnF folded); experiment: NMR HSQC titration (line broadening); Zn2+; all peaks lost at 1:1; 20 uM protein, 5 mM sodium phosphate pH 6.0, 1 mM MgCl2 (ZnCl2 added for full-length FUS and F-CTD), 25 C; conditions: protein: recombinant; tags: none; G4 (by CD in the phosphate buffer)

Measured: binding result

Sequence of FUS U-CTD (RGG2-ZnF-RGG3, ZnF unfolded) (P35637 371-526): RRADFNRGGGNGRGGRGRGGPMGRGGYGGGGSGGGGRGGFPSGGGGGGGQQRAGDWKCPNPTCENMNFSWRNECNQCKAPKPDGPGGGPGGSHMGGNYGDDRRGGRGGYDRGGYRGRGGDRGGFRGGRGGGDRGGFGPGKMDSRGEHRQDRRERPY
T2 sequence (P35637 371-526): as above
T3 sequence (P35637 whole entry): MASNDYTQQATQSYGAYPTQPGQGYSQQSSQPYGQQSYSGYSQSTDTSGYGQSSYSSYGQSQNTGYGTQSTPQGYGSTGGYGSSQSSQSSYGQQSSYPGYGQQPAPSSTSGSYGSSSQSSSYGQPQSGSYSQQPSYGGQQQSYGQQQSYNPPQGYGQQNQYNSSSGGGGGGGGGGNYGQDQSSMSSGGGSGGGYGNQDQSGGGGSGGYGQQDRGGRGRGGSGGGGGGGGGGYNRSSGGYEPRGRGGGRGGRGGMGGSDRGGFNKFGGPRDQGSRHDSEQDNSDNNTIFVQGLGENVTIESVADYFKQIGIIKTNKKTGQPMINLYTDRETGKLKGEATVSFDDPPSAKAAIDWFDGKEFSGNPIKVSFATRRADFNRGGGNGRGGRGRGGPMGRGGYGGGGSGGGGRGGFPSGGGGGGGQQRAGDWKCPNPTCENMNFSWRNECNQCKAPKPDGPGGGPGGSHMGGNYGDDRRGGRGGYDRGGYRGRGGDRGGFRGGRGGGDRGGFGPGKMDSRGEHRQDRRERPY
T1 sequence (P35637 1-267): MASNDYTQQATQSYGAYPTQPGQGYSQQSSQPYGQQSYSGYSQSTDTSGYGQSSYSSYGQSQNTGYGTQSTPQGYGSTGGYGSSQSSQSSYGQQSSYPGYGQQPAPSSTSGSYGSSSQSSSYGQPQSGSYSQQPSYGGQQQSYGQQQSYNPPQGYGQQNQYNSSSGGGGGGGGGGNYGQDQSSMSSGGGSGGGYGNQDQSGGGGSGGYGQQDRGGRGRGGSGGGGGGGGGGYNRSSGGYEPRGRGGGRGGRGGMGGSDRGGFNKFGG

B1: T24 (ssDNA)
DNA: TTTTTTTTTTTTTTTTTTTTTTTT
binds: [1]; unstructured (CD) | FUS NTD (PLD+RGG1) [2] | [3] | FUS full-length [4]

B2: TssDNA (telomeric ssDNA, 24-mer) (structured_DNA)
DNA: TTAGGGTTAGGGTTAGGGTTAGGG
binds: [1]; G4 (by CD in the phosphate buffer) | FUS full-length [5] | FUS NTD (PLD+RGG1) [6] | [7]
